{"source": "paper PMC9499004", "about": "“Impact of G-Quadruplex Structures on Methylation of Model Substrates by DNA Methyltransferase Dnmt3a”", "key": {"[1]": {"molecular_target": "T1, AIR-Dnmt3a2 (autoinhibition removed) (murine, UniProt O88508-2 1-689, Y303A;Y305A)", "experiment": "EMSA; 1 uM protein, 100 uM AdoHcy; no difference from 76Tf/95Bf-G4; 20 mM HEPES-NaOH pH 7.5, 100 mM KCl, 1 mM EDTA, 1 mM DTT, 100 uM AdoHcy, 25 C (EMSA: + 6% glycerol, 30 min, 60 nM DNA, gel at 4 C; FP: 10 nM DNA)"}, "M.SssI": {"molecular_target": "M.SssI (prokaryotic (species ), UniProt P15840 1-386)", "sequence (P15840 whole entry)": "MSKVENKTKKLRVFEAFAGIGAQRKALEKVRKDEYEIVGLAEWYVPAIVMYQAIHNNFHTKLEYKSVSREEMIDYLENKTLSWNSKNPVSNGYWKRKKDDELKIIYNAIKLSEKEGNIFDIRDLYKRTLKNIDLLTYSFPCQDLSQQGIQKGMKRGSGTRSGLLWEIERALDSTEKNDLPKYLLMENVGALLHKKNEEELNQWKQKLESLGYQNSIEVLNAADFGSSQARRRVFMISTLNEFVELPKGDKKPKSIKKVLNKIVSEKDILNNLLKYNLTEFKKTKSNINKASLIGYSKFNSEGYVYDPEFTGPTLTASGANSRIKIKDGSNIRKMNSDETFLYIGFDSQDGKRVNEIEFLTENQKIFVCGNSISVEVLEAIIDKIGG", "experiment": "EMSA; 100 uM AdoHcy; 20 mM HEPES-NaOH pH 7.5, 100 mM KCl, 1 mM EDTA, 1 mM DTT, 100 uM AdoHcy, 25 C (EMSA: + 6% glycerol, 30 min, 60 nM DNA, gel at 4 C; FP: 10 nM DNA)", "details": "protein: recombinant; label: FAM; 30 bp duplex"}, "Dnmt3a-CD": {"molecular_target": "Dnmt3a-CD (murine, UniProt O88508 608-908)", "experiment": "EMSA; 1 uM protein, 100 uM AdoHcy; 20 mM HEPES-NaOH pH 7.5, 100 mM KCl, 1 mM EDTA, 1 mM DTT, 100 uM AdoHcy, 25 C (EMSA: + 6% glycerol, 30 min, 60 nM DNA, gel at 4 C; FP: 10 nM DNA)", "details": "protein: recombinant; tags: N-terminal 6xHis; chain copies: 2; label: fluorophore (FAM or TAMRA); no G4"}, "[2]": {"molecular_target": "T1, AIR-Dnmt3a2 (autoinhibition removed)", "experiment": "EMSA; 1 uM protein, 100 uM AdoHcy; 20 mM HEPES-NaOH pH 7.5, 100 mM KCl, 1 mM EDTA, 1 mM DTT, 100 uM AdoHcy, 25 C (EMSA: + 6% glycerol, 30 min, 60 nM DNA, gel at 4 C; FP: 10 nM DNA)"}}, "data": [{"binder": "76Tf/76Bf (dsDNA) DNA 1: TCCTTTCGCGCTTGGATCCTATGAGCGTTACTCGAGCATATGGCTCAGCTGCCAGGCACCAGTGTCAGCGTCCTAT DNA 2: ATAGGACGCTGACACTGGTGCTTGGCAGCTGAGCCATATGCTCGAGTAACGCTCATAGGATCCAAGCGCGAAAGGA", "values": [{"measurement": "binding result", "setting": "[1]", "value": "binds"}]}, {"binder": "30Tf/30Bf (dsDNA) DNA 1: CTGAATACTACTTGCGCTCTCTAACCTGAT DNA 2: ATCAGGTTAGAGAGCGCAAGTAGTATTCAG", "values": [{"measurement": "binding result", "setting": "M.SssI", "value": "binds"}]}, {"binder": "AGGGAGTGAGTGAGTGAGTATA (ssDNA)", "note": "[22(GAGT)4f]", "values": [{"measurement": "binding signal", "setting": "Dnmt3a-CD", "value": "~4", "unit": "fold weaker than 19G4f"}, {"measurement": "binding signal", "setting": "[2]", "value": "~4", "unit": "fold weaker than 19G4f"}]}]}
